Measured values as given in the Immune Epitope Database (IEDB).

Tests used:
HLA-B*51:01 = experiment: IEDB peptide-MHC binding, purified MHC/competitive/radioactivity; filed as Kd, often an IC50 or EC50 that approximates it; ≥ and ≤ were set here for values at or beyond the usual limits of such assays
HLA-B*53:01 = experiment: as above
HLA-B*44:03 = experiment: as above
HLA-B*44:02 = experiment: as above; conditions: source organism: Dengue virus 1 Singapore/S275/1990
HLA-A*30:01 = experiment: as above
HLA-B*15:01 = experiment: as above; conditions: source organism: Vaccinia virus WR
HLA-A*32:01 = experiment: as above
HLA-B*08:01 = experiment: as above; conditions: source organism: Vaccinia virus WR
HLA-B*15:03 = experiment: as above
HLA-A*02:01 [1] = experiment: IEDB peptide-MHC binding, purified MHC/competitive/fluorescence; filed as Kd, often an IC50 or EC50 that approximates it; ≥ and ≤ were set here for values at or beyond the usual limits of such assays; conditions: source organism: Vaccinia virus Copenhagen
HLA-A*02:01 [2] = experiment: IEDB peptide-MHC binding, purified MHC/competitive/radioactivity; filed as Kd, often an IC50 or EC50 that approximates it; ≥ and ≤ were set here for values at or beyond the usual limits of such assays
HLA-B*07:02 = experiment: as above
HLA-A*30:02 = experiment: as above
HLA-A*01:01 = experiment: as above
HLA-A*29:02 = experiment: as above
HLA-A*23:01 = experiment: as above; conditions: source organism: Mammarenavirus whitewaterense
HLA-A*26:01 = experiment: as above
HLA-A*24:02 = experiment: as above; conditions: source organism: Mammarenavirus whitewaterense
HLA-B*40:01 = experiment: as above
HLA-B*48:01 = experiment: IEDB peptide-MHC binding, purified MHC/direct/fluorescence; filed as Kd, often an IC50 or EC50 that approximates it; ≥ and ≤ were set here for values at or beyond the usual limits of such assays
[3] = source organism: Dengue virus 1 Brazil/97-11/1997
[4] = source organism: Dengue virus 1 Singapore/S275/1990
[5] = source organism: Vaccinia virus WR
[6] = source organism: Mammarenavirus whitewaterense
[7] = source organism: Dengue virus 3 Martinique/1243/1999
[8] = source organism: Vaccinia virus Copenhagen
[9] = source organism: Dengue virus 4 Philippines/H241/1956
[10] = source organism: Mammarenavirus choriomeningitidis

MAFIAFLRFL
Kd (HLA-B*51:01; [3]): 16100 nM

MEVTARWLW
Kd (HLA-B*53:01; [4]): 804 nM
Kd (HLA-B*44:03; [4]): 10.9 nM
Kd (HLA-B*44:02): 2.1 nM

MIEEVMRSRW
Kd (HLA-B*53:01; [3]): 166 nM

MIKIALSVA
Kd (HLA-A*30:01; [5]): 1270 nM
Kd (HLA-B*15:01): 2780 nM
Kd (HLA-A*32:01; [5]): 4690 nM
Kd (HLA-B*08:01): 535 nM
Kd (HLA-B*15:03; [5]): 559 nM

MKSLAMTAF
Kd (HLA-B*15:03; [5]): 0.182 nM

MLVSQALNSV
Kd (HLA-A*02:01 [1]): 3.4 nM

MTSYQYLII
Kd (HLA-A*02:01 [2]; source organism: Lassa virus Josiah): 926 nM

QPMEHKYSW
Kd (HLA-B*53:01; [3]): 57.8 nM
Kd (HLA-B*07:02; [3]): 141 nM

RAAGLQDCTML
Kd (HLA-A*02:01 [2]; source organism: Hepatitis C virus (isolate 1)): ≥ 50000 nM

RCWLTKNGSY
Kd (HLA-A*30:01; [6]): 3790 nM
Kd (HLA-A*30:02; [6]): 57.5 nM
Kd (HLA-A*01:01; [6]): 18900 nM
Kd (HLA-A*29:02; [6]): 8920 nM
Kd (HLA-A*23:01): ≥ 70000 nM
Kd (HLA-A*32:01; [6]): ≥ 69900 nM
Kd (HLA-A*26:01; [6]): ≥ 23300 nM
Kd (HLA-A*24:02): ≥ 70300 nM

RLNPEVSYF
Kd (HLA-B*15:01): 0.304 nM
Kd (HLA-B*15:03; [5]): 0.32 nM

RLQPNQPPK
Kd (HLA-A*30:01; [5]): 145 nM
Kd (HLA-B*15:01): 934 nM
Kd (HLA-A*32:01; [5]): 1520 nM
Kd (HLA-B*08:01): 1010 nM
Kd (HLA-B*15:03; [5]): 298 nM

RSHIRKPPS
Kd (HLA-A*30:01; [5]): 82.1 nM
Kd (HLA-B*15:01): 11000 nM
Kd (HLA-A*32:01; [5]): ≥ 77800 nM
Kd (HLA-B*08:01): 3330 nM
Kd (HLA-B*15:03; [5]): ≥ 23100 nM

SETQHGTIL
Kd (HLA-B*44:03; [7]): 127 nM
Kd (HLA-B*40:01; [7]): 3.95 nM

SMWYIPNVF
Kd (HLA-A*32:01; [8]): 5.1 nM
Kd (HLA-B*15:03; [8]): 0.722 nM

SMYPSYIEF
Kd (HLA-B*15:03; [5]): 0.11 nM

SPIEDIEREI
Kd (HLA-B*53:01; [9]): 411 nM
Kd (HLA-B*07:02; [9]): 5450 nM
Kd (HLA-B*51:01; [9]): ≥ 22000 nM

SRLTYQWHK
Kd (HLA-B*48:01; source organism: Yellow fever virus): ≥ 20000 nM

SSKVFLKAF
Kd (HLA-A*30:01; [5]): 2410 nM
Kd (HLA-B*15:01): 1.7 nM
Kd (HLA-A*32:01; [5]): 7020 nM
Kd (HLA-B*08:01): 728 nM
Kd (HLA-B*15:03; [5]): 0.369 nM

TEEIAVQNWL
Kd (HLA-B*40:01; source organism: Dengue virus 2 Jamaica/1409/1983): 104 nM

VGVNHSNTF
Kd (HLA-B*15:03; [5]): 80.6 nM

VLEDVQAAGI
Kd (HLA-A*02:01 [1]): 232 nM

VTERIFREY
Kd (HLA-A*30:01; [10]): 4010 nM
Kd (HLA-A*30:02; [10]): 876 nM
Kd (HLA-A*01:01; [10]): 8.62 nM
Kd (HLA-A*29:02; [10]): 8690 nM
Kd (HLA-A*32:01; [10]): 12900 nM
Kd (HLA-A*26:01; [10]): ≥ 44900 nM

YKFSCGLSL
Kd (HLA-B*15:03; [5]): 0.132 nM

YRLRGEARK
Kd (HLA-B*48:01; [4]): ≥ 20000 nM
